# Results from the DeepSol protein solubility set.
# Experiment: soluble on expression in E. coli; label from the status in PepcDB or PDB records
row,Sequence,soluble on expression in E. coli
1,AHHHHHHGSGVPIGEIIPRKEIELENLYGKKIAIDALNAIYQFLSTIRQKDGTPLMDSKGRITSHLSGLFYRTINLMEAGIKPVYVFDGEPPEFKKKELEKRREAREEAEEKWREALEKGEIEEARKYAQRATRVNEMLIEDAKKLLELMGIPIVQAPSEGEAQAAYMAAKGSVYASASQDYDSLLFGAPRLVRNLTITGKRKLPGKNVYVEIKPELIILEEVLKELKLTREKLIELAILVGTDYNPGGIKGIGLKKALEIVRHSKDPLAKFQKQSDVDLYAIKEFFLNPPVTDNYNLVWRDPDEEGILKFLCDEHDFSEERVKNGLERLKKAIKSGKQSTLESWFKR,soluble
2,MGKISIVGLGPGDYSLISQGVLESLINSPKVFFRTEKHPIIDKLKETIQYTSLDYFYEKEENFDNVYLKISEFIIEESAKGDLVYAVPGHPRVAEKTVSIIERLANEKHIAVEILPSMSFVDAMFNYLAIDPSEGFKLVDAFEIENSYIDLDTSMIITQVYDKFIASNVKLKLMEHYDYNQEVCIVNGAGVKDLESKKFIKLCELDRNENFFDYLTSLYIPKSSKKMYNTVHDLEIIVNTLRSPSGCEWDKKQTHQSLKNSVIEEAYELCNAIDNNDIDEMVEELGDVLLQVIFHCQIGNEEGYFDLKEVVNGICKKLIHRHPHIFSGAKLDMSKFEKTWEELKKEEKGESTITDGLRRIPKHLPALMKASKVQHKAALVGFDWDNVEDVFKKIEEEYQELLDEHRVGNIKYIKEELGDLLFSIVNLARFLDIDSGEALNCTTEKFINRFDFIEKSAMNLNKKLEDMTLEEMDEFWNQAKKQ,not soluble
3,SASVEGDDDFGSSSSRSYQDQLYTELWKVCAGPLVEVPRAQERVFYFPQGHMEQLVASTNQGINSEEIPVFDLPPKILCRVLDVTLKAEHETDEVYAQITLQPEEDQSEPTSLDPPIVGPTKQEFHSFVKILTASDTSTHGGFSVLRKHATECLPSLDMTQATPTQELVTRDLHGFEWRFKHIFRGQPRRHLLTTGWSTFVSSKRLVAGDAFVFLRGENGDLRVGVRRLARHQSTMPTSVISSQSMHLGVLATASHAVRTTTIFVVFYKPRISQFIVGVNKYMEAIKHGFSLGTRFRMRFEGEESPERIFTGTIVGSGDLSSQWPASKWRSLQVQWDEPTTVQRPDKVSPWEIEPFLATSPISTPAQQPQSKCKRSRPIEPSVKTPAPPSFLYSLPQSQDSINASLKLFQDPSLERISGGYSSNNSFKPETPPPPTNCSYRLFGFDLTSNSPAPIPQDKQPMDTCGAAKCQEPITPTSMSEQKKQQTSRSRTKVQMQGIAVGRAVDLTLLKSYDELIDELEEMFEIQGQLLARDKWIVVFTDDEGDMMLAGDDPWNEFCKMAKKIFIYSSDEVKKMTTKLKISSSLENEEYGNESFENRSRG,not soluble
4,MGSDKIHHHHHHMIETQKEQERALLVGVELQQTDNFDMSMEELASLAKTAGALVKGVYTQKREKYDSKTFVGSGKLDEIAQMVEADEIDTVIVNNRLTPRQNVNLEEILGVKVIDRMQLILDIFAMRARSHEGKLQVHLAQLKYMLPRLVGQGIMLSRQAGGIGSRGPGESQLELNRRSIRNQIHDIERQLKTVEKNRATVRERRLQSGVFKIGLIGYTNAGKSTIMNVMTDKRQYEADELFATLDATTKQINLADKFNVTLTDTVGFIQDLPTELISAFKSTLEESMNVDLLLHIIDASDPNHSEQEQVVLDILKDLDMLDIPRLALYNKLDKTDDSFTPSQFPHVMLSAKDENAKGHIQMMVLAKIKTMFERFEVRVPLAESYKLHDLATLALIENRTYEEDVEVVSGYIASANKWKLEEFYDGLS,not soluble
5,GSHMLKGQEFAPSHQQVYAPLRADGDKPRAHLTVVRQTPTQHFKNQFPALHWEHELGLAFTKNRMNYTNKFLLIPESGDYFIYSQVTFRGMTSESSEIRQAGRPNKPDSITVVITKVTDSYPEPTQLLMGTKSVSEVGSNWFQPIYLGAMFSLQEGDKLMVNVSDISLVDYTKEDKTFFGAFLL,soluble
6,MLPFANYYISSPSVSEKNAINNNVNKRRKKKRAMMVYGGGGGGDDLAVVKAAAWAWYLRKEGKPIMREFDVTRAQRIPRPSRYKIEATKNMILSENRVLAENRVSSTKSPLWYTNYQFRGDQETYYSRLLDTYETKNISKRLNIDDSSFSTSLSSVLKHNGDDHHNHNRNDDYGFDDHGLLKKRNGSDSNTTTRSKTNNDKSYNGGFMKKVSKRSLWKGMIVMGPGSTVCGRSDDVASQAGRRTVKVAVAAEALVRSAASGSGKTQSGHC,not soluble
